The supplement of paper PMC9112550, “Optimization of the antimicrobial peptide Bac7 by deep mutational scanning” (BMC Biology, 2022)

System: Escherichia coli TOP10
Assay: shrunken log2 fold change of peptide-encoding DNA abundance (4.5 h post-induction vs induction); higher = less antimicrobial activity (less host growth inhibition)
Conditions: time post-induction: 4.5 h; library: site-saturation at positions 5, 18, 19, 20
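Also: peptides expressed intracellularly from a pBAD plasmid library in pooled LB shake-flask culture, induced with 0.3% L-arabinose, DNA abundance read by NGS, three biological replicates, DESeq2 with apeglm shrinkage.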

Row | Sequence | shrunken log2 fold change
1 | RRIRGRPPRLPRPRPRPFTGPRP | -0.186
2 | RRIRFRPPRLPRPRPRPIQFPRP | -0.000317
3 | RRIRARPPRLPRPRPRPCPKPRP | -0.0619
4 | RRIRIRPPRLPRPRPRPNCIPRP | -0.408
5 | RRIRLRPPRLPRPRPRPWLNPRP | -0.183
6 | RRIRQRPPRLPRPRPRPQWNPRP | -0.206
7 | RRIRCRPPRLPRPRPRPFLIPRP | -0.36
8 | RRIRKRPPRLPRPRPRPRFYPRP | 0.33
9 | RRIRDRPPRLPRPRPRPQLWPRP | 0.92
10 | RRIRWRPPRLPRPRPRPMVLPRP | -0.243
11 | RRIRPRPPRLPRPRPRPPNLPRP | 0.0664
12 | RRIRVRPPRLPRPRPRPTQNPRP | 0.693
13 | RRIRERPPRLPRPRPRPQEHPRP | -0.179
14 | RRIRNRPPRLPRPRPRPFCWPRP | 0.0104
15 | RRIRCRPPRLPRPRPRPLYCPRP | -0.593
16 | RRIRARPPRLPRPRPRPRNSPRP | -0.0469
17 | RRIRSRPPRLPRPRPRPANMPRP | -0.289
18 | RRIRPRPPRLPRPRPRPTPVPRP | 0.379
19 | RRIRNRPPRLPRPRPRPTMVPRP | -0.0433
20 | RRIRARPPRLPRPRPRPHLQPRP | 0.439

Row | Sequence | shrunken log2 fold change
21 | RRIRFRPPRLPRPRPRPAMEPRP | 0.0126
22 | RRIRERPPRLPRPRPRPPAWPRP | 0.0898
23 | RRIRCRPPRLPRPRPRPTLGPRP | 0.168
24 | RRIRGRPPRLPRPRPRPDKAPRP | -0.00124
25 | RRIRYRPPRLPRPRPRPHRMPRP | -1.51
26 | RRIRVRPPRLPRPRPRPCFDPRP | -0.121
27 | RRIRSRPPRLPRPRPRPMAWPRP | -0.00175
28 | RRIRARPPRLPRPRPRPVAGPRP | 0.35
29 | RRIRRRPPRLPRPRPRPDCNPRP | 0.311
30 | RRIRTRPPRLPRPRPRPDRFPRP | 0.0382
31 | RRIRARPPRLPRPRPRPCVHPRP | 1.06
32 | RRIRSRPPRLPRPRPRPGMYPRP | 0.0605
33 | RRIRMRPPRLPRPRPRPACSPRP | 0.551
34 | RRIRCRPPRLPRPRPRPGSQPRP | 0.0392
35 | RRIRRRPPRLPRPRPRPHVTPRP | -0.154
36 | RRIRARPPRLPRPRPRPPDGPRP | 1.3
37 | RRIRNRPPRLPRPRPRPDEKPRP | -0.133
38 | RRIRPRPPRLPRPRPRPMMHPRP | -0.0262
39 | RRIRCRPPRLPRPRPRPEQCPRP | 0.237
40 | RRIRARPPRLPRPRPRPPAVPRP | 0.927

Row | Sequence | shrunken log2 fold change
41 | RRIRKRPPRLPRPRPRPMPNPRP | 0.399
42 | RRIRDRPPRLPRPRPRPCEMPRP | 0.63
43 | RRIRVRPPRLPRPRPRPQLRPRP | 0.0648
44 | RRIRSRPPRLPRPRPRPEHHPRP | -0.153
45 | RRIRTRPPRLPRPRPRPWTQPRP | 0.0256
46 | RRIRNRPPRLPRPRPRPSKKPRP | -0.0392
47 | RRIRHRPPRLPRPRPRPQPHPRP | -0.0753
48 | RRIRCRPPRLPRPRPRPLQLPRP | -0.546
49 | RRIRKRPPRLPRPRPRPPLCPRP | 0.668
50 | RRIRLRPPRLPRPRPRPNHNPRP | -0.726
51 | RRIRGRPPRLPRPRPRPFKVPRP | -0.14
52 | RRIRLRPPRLPRPRPRPHFCPRP | 0.0717
53 | RRIRRRPPRLPRPRPRPIMAPRP | 0.107
54 | RRIRMRPPRLPRPRPRPYYVPRP | -0.0412
55 | RRIRFRPPRLPRPRPRPYTPPRP | -1.28
56 | RRIRPRPPRLPRPRPRPALWPRP | 0.612
57 | RRIRMRPPRLPRPRPRPPPTPRP | 1.97
58 | RRIRSRPPRLPRPRPRPINVPRP | -0.418
59 | RRIRERPPRLPRPRPRPHMAPRP | -0.0803
60 | RRIRPRPPRLPRPRPRPCMIPRP | -0.692
